We go through six molecules from US20250076311A1 (Chugai, published 2025).

What all share (test): SPR Biacore, antibody captured, FcgR analyte
In experiment [1] the target is T1, cynomolgus monkey FcγRIIIaS extracellular domain with C-terminal His-tag (cynomolgus monkey, UniProt A3RFZ7 21-206 (rhesus entry)).
T1 construct: also called cyno FcgRIIIaS; cynoFcγRIIIaS; not shown: His-tag added to C-terminus

The target of experiment [2] is T2, human FcγRIIIaV extracellular domain with C-terminal His-tag (human, UniProt P08637 17-208).
T2 construct: also called human FcgRIIIaV; not shown: His-tag added to C-terminus
T2 sequence (P08637 17-208 F176V): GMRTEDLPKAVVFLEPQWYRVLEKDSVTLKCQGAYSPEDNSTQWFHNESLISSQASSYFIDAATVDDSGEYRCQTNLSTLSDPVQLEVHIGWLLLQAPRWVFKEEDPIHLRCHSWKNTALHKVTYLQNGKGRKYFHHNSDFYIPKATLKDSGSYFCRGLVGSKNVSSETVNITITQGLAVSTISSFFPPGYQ

For experiment [3], the target named is T3, cynomolgus monkey FcγRIIb extracellular domain with C-terminal His-tag (cynomolgus monkey).
T3 construct: also called cyno FcgRIIb; cynoFcγRIIb; not shown: His-tag added to C-terminus
T3 chain: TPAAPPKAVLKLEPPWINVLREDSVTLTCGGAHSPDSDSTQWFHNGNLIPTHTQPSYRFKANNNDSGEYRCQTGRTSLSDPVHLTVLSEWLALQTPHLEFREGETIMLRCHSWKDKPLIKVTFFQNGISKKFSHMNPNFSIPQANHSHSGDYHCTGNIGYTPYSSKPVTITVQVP

Experiment [4] deals with T4, cynomolgus monkey FcγRIIa2 extracellular domain with C-terminal His-tag (cynomolgus monkey).
T4 construct: also called cyno FcgRIIa2; cynoFcγRIIa2; not shown: His-tag added to C-terminus
T4 chain: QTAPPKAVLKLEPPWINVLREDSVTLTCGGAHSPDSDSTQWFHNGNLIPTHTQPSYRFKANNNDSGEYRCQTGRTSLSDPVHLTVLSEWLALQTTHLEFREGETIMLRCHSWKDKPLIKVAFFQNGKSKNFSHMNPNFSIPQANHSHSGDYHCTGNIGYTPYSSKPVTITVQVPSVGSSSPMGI

Experiment [5] concerns the target T5, human FcγRIIb extracellular domain with C-terminal His-tag (human, UniProt P31994 43-217).
T5 construct: also called human FcgRIIb; not shown: His-tag added to C-terminus
T5 sequence: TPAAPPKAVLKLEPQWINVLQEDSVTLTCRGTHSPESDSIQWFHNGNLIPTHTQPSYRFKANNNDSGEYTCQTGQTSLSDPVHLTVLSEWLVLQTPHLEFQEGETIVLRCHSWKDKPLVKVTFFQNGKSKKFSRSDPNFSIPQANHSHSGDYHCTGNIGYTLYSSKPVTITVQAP

The target of experiment [6] is T6, human FcγRIIaR extracellular domain with C-terminal His-tag (human, UniProt P12318 34-217).
T6 construct: also called human FcgRIIaR; FcγRIIa (type R); not shown: His-tag added to C-terminus
T6 chain: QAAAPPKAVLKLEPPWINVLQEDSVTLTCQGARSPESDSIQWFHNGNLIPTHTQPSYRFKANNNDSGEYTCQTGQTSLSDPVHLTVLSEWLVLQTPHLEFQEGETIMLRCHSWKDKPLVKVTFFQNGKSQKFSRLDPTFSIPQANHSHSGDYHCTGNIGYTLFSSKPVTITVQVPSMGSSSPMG

B1: M103205H795-MY182/M103202L889-SK1 (antibody, human IgG1, kappa, name in EU numbering)
heavy: QVTLKESGPVLVKPTETLTLTCTVSGIDLSHDDISWVRQAPGKGLEWVGIISYAGSTYYASWAKGRLTISKDTSKNQVVLTMTNMDPVDTATYYCARGVPAYSHGGDLWGQGTLVTVSSASTKGPSVFPLAPSSKSTSGGTAALGCLVKDYFPEPVTVSWNSGALTSGVHTFPAVLQSSGLYSLSSVVTVPSSSLGTQTYICNVNHKPSNTKVDKKVEPKSCDKTHTCPPCPAPELLNGPSVFLFPPKPKDTLMISRTPEVTCVVVDVSEEDPEVKFNWYVDGVEVHNAKTKPREEQYNSTYRVVSVLTVLHQDWLNGKEYKCKVSNKALPAPIEKTISKAKGQPREPQVYTLPPSREEMTKNQVSLTCLVKGFYPSDIAVEWESNGQPENNYKTTPVVLDSDGSFFLYSKLTVDKSRWQQGNVFSCSVMHEALHNHYTQKSLSLSP
light: DIVMTQSPATLSLSPGERATLSCTSSQSVYHANWLSWFQQKPGQPPKLLIYWASTLAYGVPSRFSGSGSGTDFTLTISSLQPEDAATYYCAGGYGGGRYAFGQGTKVEIKRTVAAPSVFIFPPSDEQLKSGTASVVCLLNNFYPREAKVQWKVDNALQSGNSQESVTEQDSKDSTYSLSSTLTLSKADYEKHKVYACEVTHQGLSSPVTKSFNRGEC
notes: EU numbering
On to B1, for which the “KD fold (SG1 = 1)” value is 0.1 fold in experiment [1] and 0.17 fold in experiment [2]. The dissociation constant (Kd) (as a rule, the concentration at which binding is half-saturated) in experiment [1] was found to be 3.6 µM.

B2: M103205H795-MY440/M103202L889-SK1 (antibody, human IgG1, kappa, name in EU numbering)
heavy: QVTLKESGPVLVKPTETLTLTCTVSGIDLSHDDISWVRQAPGKGLEWVGIISYAGSTYYASWAKGRLTISKDTSKNQVVLTMTNMDPVDTATYYCARGVPAYSHGGDLWGQGTLVTVSSASTKGPSVFPLAPSSKSTSGGTAALGCLVKDYFPEPVTVSWNSGALTSGVHTFPAVLQSSGLYSLSSVVTVPSSSLGTQTYICNVNHKPSNTKVDKKVEPKSCDKTHTCPPCPAPELWNGPSVFLFPPKPKDTLMISRTPEVTCVVVDVSDEDPEVKFNWYVDGVEVHNAKTKPREELYNSTYRVVSVLTVLHQDWLNGKEYKCKVSNKALPKPIEKTISKAKGQPREPQVYTLPPSREEMTKNQVSLTCLVKGFYPSDIAVEWESNGQPENNYKTTPPVLDSDGSFFLYSKLTVDKSRWQQGNVFSCSVMHEALHNHYTQKSLSLSP
light: DIVMTQSPATLSLSPGERATLSCTSSQSVYHANWLSWFQQKPGQPPKLLIYWASTLAYGVPSRFSGSGSGTDFTLTISSLQPEDAATYYCAGGYGGGRYAFGQGTKVEIKRTVAAPSVFIFPPSDEQLKSGTASVVCLLNNFYPREAKVQWKVDNALQSGNSQESVTEQDSKDSTYSLSSTLTLSKADYEKHKVYACEVTHQGLSSPVTKSFNRGEC
notes: substitutions in EU numbering, introduced into M103205H795-SG1
B2: the “KD fold (SG1 = 1)” value in experiment [1] was 0.04 fold; in experiment [2], 0.03 fold; in experiment [3] it was 3.9 fold.

B3: M103205H795-MY183/M103202L889-SK1 (antibody, human IgG1, kappa, name in EU numbering)
heavy: QVTLKESGPVLVKPTETLTLTCTVSGIDLSHDDISWVRQAPGKGLEWVGIISYAGSTYYASWAKGRLTISKDTSKNQVVLTMTNMDPVDTATYYCARGVPAYSHGGDLWGQGTLVTVSSASTKGPSVFPLAPSSKSTSGGTAALGCLVKDYFPEPVTVSWNSGALTSGVHTFPAVLQSSGLYSLSSVVTVPSSSLGTQTYICNVNHKPSNTKVDKKVEPKSCDKTHTCPPCPAPELLNGPSVFLFPPKPKDTLMISRTPEVTCVVVDVSEEDPEVKFNWYVDGVEVHNAKTKPREEQYNSTYRVVSVLTVLHQDWLNGKEYKCKVSNKALPAPIEKTISKAKGQPREPQVYTLPPSREEMTKNQVSLTCLVKGFYPSDIAVEWESNGQPENNYKTTPWVLDSDGSFFLYSKLTVDKSRWQQGNVFSCSVMHEALHNHYTQKSLSLSP
light: DIVMTQSPATLSLSPGERATLSCTSSQSVYHANWLSWFQQKPGQPPKLLIYWASTLAYGVPSRFSGSGSGTDFTLTISSLQPEDAATYYCAGGYGGGRYAFGQGTKVEIKRTVAAPSVFIFPPSDEQLKSGTASVVCLLNNFYPREAKVQWKVDNALQSGNSQESVTEQDSKDSTYSLSSTLTLSKADYEKHKVYACEVTHQGLSSPVTKSFNRGEC
notes: EU numbering
With B3, the “KD fold (SG1 = 1)” value in experiment [1] came out at 0.1 fold; in experiment [4], 2.6 fold; in experiment [5] it was 4.7 fold. The results for the dissociation constant Kd in experiment [1] and in experiment [2] were 3.5 µM and 7.7 µM, respectively.

B4: M103205H795-MY212/M103202L889-SK1 (antibody, human IgG1, kappa, name in EU numbering)
heavy: QVTLKESGPVLVKPTETLTLTCTVSGIDLSHDDISWVRQAPGKGLEWVGIISYAGSTYYASWAKGRLTISKDTSKNQVVLTMTNMDPVDTATYYCARGVPAYSHGGDLWGQGTLVTVSSASTKGPSVFPLAPSSKSTSGGTAALGCLVKDYFPEPVTVSWNSGALTSGVHTFPAVLQSSGLYSLSSVVTVPSSSLGTQTYICNVNHKPSNTKVDKKVEPKSCDKTHTCPPCPAPELLNGPVVFLFPPKPKDTLMISRTPEVTCVVVDVSDEDPEVKFNWYVDGVEVHNAKTKPREELYNSTYRVVSVLTVLHQDWLNGKEYKCKVSNTALPKPIEKTISKAKGQPREPQVYTLPPSREEMTKNQVSLTCLVKGFYPSDIAVEWESNGQPENNYKTTPPVLDSDGSFFLYSKLTVDKSRWQQGNVFSCSVMHEALHNHYTQKSLSLSP
light: DIVMTQSPATLSLSPGERATLSCTSSQSVYHANWLSWFQQKPGQPPKLLIYWASTLAYGVPSRFSGSGSGTDFTLTISSLQPEDAATYYCAGGYGGGRYAFGQGTKVEIKRTVAAPSVFIFPPSDEQLKSGTASVVCLLNNFYPREAKVQWKVDNALQSGNSQESVTEQDSKDSTYSLSSTLTLSKADYEKHKVYACEVTHQGLSSPVTKSFNRGEC
notes: as for B2
B4: the figures for the “KD fold (SG1 = 1)” value in experiment [1], in experiment [2] and in experiment [5] were 0.14 fold, 0.17 fold and 7.5 fold, respectively.

B5: M103205H795-MY200/M103202L889-SK1 (antibody)
heavy: QVTLKESGPVLVKPTETLTLTCTVSGIDLSHDDISWVRQAPGKGLEWVGIISYAGSTYYASWAKGRLTISKDTSKNQVVLTMTNMDPVDTATYYCARGVPAYSHGGDLWGQGTLVTVSSASTKGPSVFPLAPSSKSTSGGTAALGCLVKDYFPEPVTVSWNSGALTSGVHTFPAVLQSSGLYSLSSVVTVPSSSLGTQTYICNVNHKPSNTKVDKKVEPKSCDKTHTCPPCPAPELLNGPVVFLFPPKPKDTLMISRTPEVTCVVVDVSEEDPEVKFNWYVDGVEVHNAKTKPREEQYNSTYRVVSVLTVLHQDWLNGKEYKCKVSNKALPKPIEKTISKAKGQPREPQVYTLPPSREEMTKNQVSLTCLVKGFYPSDIAVEWESNGQPENNYKTTPPVLDSDGSFFLYSKLTVDKSRWQQGNVFSCSVMHEALHNHYTQKSLSLSP
light: DIVMTQSPATLSLSPGERATLSCTSSQSVYHANWLSWFQQKPGQPPKLLIYWASTLAYGVPSRFSGSGSGTDFTLTISSLQPEDAATYYCAGGYGGGRYAFGQGTKVEIKRTVAAPSVFIFPPSDEQLKSGTASVVCLLNNFYPREAKVQWKVDNALQSGNSQESVTEQDSKDSTYSLSSTLTLSKADYEKHKVYACEVTHQGLSSPVTKSFNRGEC
Regarding B5, the results for the “KD fold (SG1 = 1)” value in experiment [1] and in experiment [2] were 0.08 fold and 0.09 fold, respectively.

B6: M103205H795-MY434/M103202L889-SK1 (antibody, human IgG1, kappa, name in EU numbering)
heavy: QVTLKESGPVLVKPTETLTLTCTVSGIDLSHDDISWVRQAPGKGLEWVGIISYAGSTYYASWAKGRLTISKDTSKNQVVLTMTNMDPVDTATYYCARGVPAYSHGGDLWGQGTLVTVSSASTKGPSVFPLAPSSKSTSGGTAALGCLVKDYFPEPVTVSWNSGALTSGVHTFPAVLQSSGLYSLSSVVTVPSSSLGTQTYICNVNHKPSNTKVDKKVEPKSCDKTHTCPPCPAPELWNGPSVFLFPPKPKDTLMISRTPEVTCVVVDVSDEDPEVKFNWYVDGVEVHNAKTKPREEQYNSTYRVVSVLTVLHQDWLNGKEYKCKVSNKALPKPIEKTISKAKGQPREPQVYTLPPSREEMTKNQVSLTCLVKGFYPSDIAVEWESNGQPENNYKTTPPVLDSDGSFFLYSKLTVDKSRWQQGNVFSCSVMHEALHNHYTQKSLSLSP
light: DIVMTQSPATLSLSPGERATLSCTSSQSVYHANWLSWFQQKPGQPPKLLIYWASTLAYGVPSRFSGSGSGTDFTLTISSLQPEDAATYYCAGGYGGGRYAFGQGTKVEIKRTVAAPSVFIFPPSDEQLKSGTASVVCLLNNFYPREAKVQWKVDNALQSGNSQESVTEQDSKDSTYSLSSTLTLSKADYEKHKVYACEVTHQGLSSPVTKSFNRGEC
notes: as for B2
Regarding B6, the results for the “KD fold (SG1 = 1)” value in experiment [1], in experiment [6] and in experiment [5] were 0.03 fold, 0.8 fold and 3.5 fold, respectively.
